Test system: Bacillus subtilis
Assay: cleaved RNA product abundance (RNA/gDNA barcode ratio) relative to median wild-type variant (ratio to wild type); higher = more accumulation of the downstream cleavage product
Conditions: experiment (reporter, strain, medium): exp 8a: truncated aprE reporter, strain BJT201 with 2% xylose (RNase J1 expressed); cleavage site: glnRA (positions -5 to +31 mutated)
Summary of the method: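 Reporter mRNAs (truncated aprE or tetM) carrying barcoded, mutagenized RNase Y cleavage-site windows were made from oligos with a 9% error rate and integrated into the B. subtilis chromosome. Cultures grew in LB at 37°C from OD600 0.0003 to 0.3. Cleaved RNA was gel-selected, reverse transcribed and barcode-sequenced alongside genomic DNA barcodes, with UMI collapsing. Cleaved product abundance is the RNA:gDNA barcode ratio per variant, scaled to the median wild-type variant.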

Sequence | cleaved RNA product abundance
CGACATGTCCCGCTTCTTTCATTAATCTGTTAGCAACCGTTTTGCTATATACATTTACCTTTTAAGAGGAGGAAT | 0.436
CGACATGTCCCGCTTCTTTCATTAATCTGTTAGCAACTATTTTGCTATATACATTTACCTTTTAAGAGGAGGAAT | 1.77
CGACATGTCCCGCTTCTTTCATTAATCTGTTAGCAACTGTTATCCTATATACATTTACCTTTTAAGAGGAGGAAT | 0.577
CGACATGTCCCGCTTCTTTCATTAATCTGTTAGCAACTGTTATGCTATATACATTTACCTTTTAAGAGGAGGAAT | 0.799
CGACATGTCCCGCTTCTTTCATTAATCTGTTAGCAACTGTTCTGCTATATACATTTACCTTTTAAGAGGAGGAAT | 0.368
CGACATGTCCCGCTTCTTTCATTAATCTGTTAGCAACTGTTTAGCTATATACATTTACCTTTTAAGAGGAGGAAT | 0.727
CGACATGTCCCGCTTCTTTCATTAATCTGTTAGCAACTGTTTGGCTATATACATTTACCTTTTAAGAGGAGGAAT | 0.476
CGACATGTCCCGCTTCTTTCATTAATCTGTTAGCAACTGTTTTACTATATACATTTACCTTTTAAGAGGAGGAAT | 0.541
CGACATGTCCCGCTTCTTTCATTAATCTGTTAGCAACTGTTTTGATATATACATTTACCTTTTAAGAGGAGGAAT | 0.562
CGACATGTCCCGCTTCTTTCATTAATCTGTTAGCAACTGTTTTGCCATATACATTTACCTTTTAAGAGGAGGAAT | 0.108
CGACATGTCCCGCTTCTTTCATTAATCTGTTAGCAACTGTTTTGCTAAATACATTTACCTTTTAAGAGGAGGAAT | 1.01
CGACATGTCCCGCTTCTTTCATTAATCTGTTAGCAACTGTTTTGCTATAAACATTTACCTTTTAAGAGGAGGAAT | 0.917
CGACATGTCCCGCTTCTTTCATTAATCTGTTAGCAACTGTTTTGCTATAGACATTTACCTTTTAAGAGGAGGAAT | 0.968
CGACATGTCCCGCTTCTTTCATTAATCTGTTAGCAACTGTTTTGCTATATAAATTTACCTTTTAAGAGGAGGAAT | 0.994
CGACATGTCCCGCTTCTTTCATTAATCTGTTAGCAACTGTTTTGCTATATACAATTACCTTTTAAGAGGAGGAAT | 0.89
CGACATGTCCCGCTTCTTTCATTAATCTGTTAGCAACTGTTTTGCTATATACAGTTACCTTTTAAGAGGAGGAAT | 0.249
CGACATGTCCCGCTTCTTTCATTAATCTGTTAGCAACTGTTTTGCTATATACATATACCTTTTAAGAGGAGGAAT | 0.829
CGACATGTCCCGCTTCTTTCATTAATCTGTTAGCAACTGTTTTGCTATATACATCTACCTTTTAAGAGGAGGAAT | 0.993
CGACATGTCCCGCTTCTTTCATTAATCTGTTAGCAACTGTTTTGCTATATACATTCACCTTTTAAGAGGAGGAAT | 0.488
CGACATGTCCCGCTTCTTTCATTAATCTGTTAGCAACTGTTTTGCTATATACATTGACCTTTTAAGAGGAGGAAT | 0.991
CGACATGTCCCGCTTCTTTCATTAATCTGTTAGCAACTGTTTTGCTATATACATTTACATTTTAAGAGGAGGAAT | 1.2
CGACATGTCCCGCTTCTTTCATTAATCTGTTAGCAACTGTTTTGCTATATACATTTACCATTTAAGAGGAGGAAT | 2.04
CGACATGTCCCGCTTCTTTCATTAATCTGTTAGCAACTGTTTTGCTATATACATTTACCTTTTAAGAGGAGGAAT | 1.16
CGACATGTCCCGCTTCTTTCATTAATCTGTTAGCAACTGTTTTGCTATATACATTTACTTTTTAAGAGGAGGAAT | 1.68
CGACATGTCCCGCTTCTTTCATTAATCTGTTAGCAACTGTTTTGCTATATACATTTATCTTTTAAGAGGAGGAAT | 0.969
CGACATGTCCCGCTTCTTTCATTAATCTGTTAGCAACTGTTTTGCTATATACTTTTACCTTTTAAGAGGAGGAAT | 0.728
CGACATGTCCCGCTTCTTTCATTAATCTGTTAGCAACTGTTTTGCTATATAGATTTACCTTTTAAGAGGAGGAAT | 0.587

— the supplement of paper PMC11780869
